Columns and labels:
[1] = target: transferrin receptor (TfR, CD71), native on human cells (Homo sapiens, UniProt P02786 P02786:1-760); test: flow; apparent, Jurkat cells, RPMI 10% FBS, tRNA and ssDNA, 37 C 1 h; no staining of ATP-arrested cells; conditions: chain copies: 2 inferred; label: 32P (filter), AF488 or Atto647N (cells); stem with 12-nt asymmetric bulge, C-rich bulge, GNRA tetraloop
Experimental: Following a 1 hour incubation at 37° C., the cells were washed twice with 1 mL FACS buffer and then resuspended in 500 μL FACS buffer containing 7AAD to exclude dead cells in the analysis. The apparent binding constant was determined from a fit of the mean fluorescence versus the aptamer concentration using the Eq. 1 above.

[2] = target: transferrin receptor (TfR, CD71), recombinant from pAcGP67A-TfR (Homo sapiens, UniProt P02786 P02786:121-760); test: filter; DPBS with Mg2+ and Ca2+, room temperature, 30 min; conditions: tags: His-tag; expressed in Sf9 insect cells, plasmid pAcGP67A-TfR (Addgene); chain copies: 2 inferred; label: 32P (filter), AF488 or Atto647N (cells); stem with 12-nt asymmetric bulge, C-rich bulge, GNRA tetraloop
transferrin receptor (TfR, CD71), recombinant from pAcGP67A-TfR, sequence (P02786 121-760, one chain of several): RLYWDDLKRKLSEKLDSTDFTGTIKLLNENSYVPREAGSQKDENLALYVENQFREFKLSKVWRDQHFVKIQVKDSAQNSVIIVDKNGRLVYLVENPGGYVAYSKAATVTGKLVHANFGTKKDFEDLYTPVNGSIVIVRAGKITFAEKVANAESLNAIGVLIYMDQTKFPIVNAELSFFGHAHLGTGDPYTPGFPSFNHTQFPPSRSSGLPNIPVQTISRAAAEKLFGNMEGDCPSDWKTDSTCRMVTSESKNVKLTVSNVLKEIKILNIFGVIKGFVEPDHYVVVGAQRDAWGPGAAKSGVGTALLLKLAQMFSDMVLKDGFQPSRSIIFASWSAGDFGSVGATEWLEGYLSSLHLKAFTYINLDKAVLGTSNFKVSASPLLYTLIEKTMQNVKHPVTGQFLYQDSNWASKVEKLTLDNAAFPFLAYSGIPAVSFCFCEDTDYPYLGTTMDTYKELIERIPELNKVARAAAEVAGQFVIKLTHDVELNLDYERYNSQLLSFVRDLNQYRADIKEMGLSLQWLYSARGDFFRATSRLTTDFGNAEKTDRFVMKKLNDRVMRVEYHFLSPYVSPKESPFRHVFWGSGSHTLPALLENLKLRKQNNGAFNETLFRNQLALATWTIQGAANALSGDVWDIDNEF

transferrin receptor (TfR, CD71), native on human cells, sequence (P02786 whole entry, one chain of several): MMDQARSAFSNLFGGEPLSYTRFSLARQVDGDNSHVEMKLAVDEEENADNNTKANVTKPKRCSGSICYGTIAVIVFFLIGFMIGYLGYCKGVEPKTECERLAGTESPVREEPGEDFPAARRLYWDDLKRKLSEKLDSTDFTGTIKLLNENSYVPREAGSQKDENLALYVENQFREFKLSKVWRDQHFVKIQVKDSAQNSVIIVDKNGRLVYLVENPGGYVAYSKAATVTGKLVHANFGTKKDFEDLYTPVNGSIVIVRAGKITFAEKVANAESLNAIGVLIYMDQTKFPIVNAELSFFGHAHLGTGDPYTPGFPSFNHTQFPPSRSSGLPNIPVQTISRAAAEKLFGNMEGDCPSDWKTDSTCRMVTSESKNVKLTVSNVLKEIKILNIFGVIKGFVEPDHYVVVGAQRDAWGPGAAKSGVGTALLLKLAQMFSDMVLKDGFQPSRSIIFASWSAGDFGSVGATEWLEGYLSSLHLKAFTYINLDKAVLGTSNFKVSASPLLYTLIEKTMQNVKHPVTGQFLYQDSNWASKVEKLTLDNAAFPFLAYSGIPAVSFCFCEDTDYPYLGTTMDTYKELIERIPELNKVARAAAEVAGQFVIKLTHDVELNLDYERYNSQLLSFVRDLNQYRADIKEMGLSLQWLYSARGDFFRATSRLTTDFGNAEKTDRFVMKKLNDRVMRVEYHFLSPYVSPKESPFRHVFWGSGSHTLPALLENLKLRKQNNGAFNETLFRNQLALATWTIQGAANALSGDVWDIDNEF

GGGGGAUCAAUCCAAGGGACCCGGAAACGCUCCCUUACACCCC (ssRNA, 2'-F pyrimidines; 3' idT; 5' thiol C6) [c2.min] was tested, and the Kd [1] was 104 nM and the Kd [2] was 102 nM.
